Test results as given in US20170097353A1, “Polymer Viral Compositions” (The Regents of the University of California, priority 2015, published 2017).
“Also recorded” adds a separate entry of the source. Ends that are not written are not given here. * marks the point of attachment. Pent4ynoyl = C#CCCC(=O)*

Assays:
[1] = Dynamic light scattering (DLS) size measurement; assay type: physicochemical
Experimental: For determination of size, 1 mL of each sample was measured at the same concentration as used for the biological assay. Each sample was measured at least three times at 25° C., with each individual size measurement being the average of 10 runs.

PSMA on LNCaP cells = target: T1, PSMA on LNCaP cells (Homo sapiens, UniProt Q04609); assay: Cell-based phage ELISA, recognition of cell surface PSMA by PEGylated ligands on phage; conditions: for binding affinity of dual ligand combinations: 2:1 dual ligand combinations on phage, FIG. 5B; for binding affinity for cell surface PSMA: PEGylated ligand 2 variants, specific/non-specific attachment, with/without PEG4 linker, FIG. 5A
T1 construct: endogenous in cells; host or cells: LNCaP (also LNCaP CSS), glutaraldehyde-fixed on Maxisorp plates
Experimental: Day 1: The cell-based ELISA was performed as previously described by Watanabe et. al. with the following modifications. Cells were detached with Trypsin-EDTA, resuspended in PBS, and then collected by centrifuging at 1200 rpm for 5 min. The cells were further washed with PBS and then concentrated as in the previous step. The concentration of the cells was adjusted to 4.5×10^6 cells/mL in PBS using a hemocytometer, and 100 μL was aliquoted to specific wells of a 96-well microtiter plate (Maxisorp plates from Nunc). The Maxisorp plates used here have a high protein-binding capacity. Thus, the plates can be used to run assays with either the cells or the phage immobilized in the wells. Next, 50 μL of a 0.15% glutaraldehyde in PBS solution was added to the wells at 4° C., and the solution was gently mixed by pipetting. The ELISA plate was then centrifuged at 1200 rpm for 10 min at 4° C., followed by overnight incubation at 4° C.
Day 2: The cell solution was gently removed, and the wells were blocked with 200 μL/well of blocking buffer containing 100 mM glycine, 1% gelatin and 0.1% w/v BSA (bovine serum albumin) in PBS. The plate was incubated overnight (˜20-22 h) at room temperature.
Separately, phage were prepared before attachment to PEG and PEGylated ligands. Phage (10 nM in 100 μL of PBS) and 1 μL of K14-alkyne (525 μM in water) were thoroughly mixed by pipetting ˜25 times. For phage wrapped with PEGylated ligands, phage were mixed with 0.75 μL of K14-Cys (525 μM in water). For mixed wrapping on the phage surface, 0.5 μL of K14-alkyne was pre-mixed with 0.75 μL of K14-Cys, and then mixed with 100 μL of 10 nM phage. The solution was shaken at room temperature for 15 min on an orbital shaker. Next, 2 μL of PEGylated ligand (625 μM in water) was added to the appropriate wells. For the dual ligand combinations, the PEGylated ligands were pre-mixed in the desired ratio (a 2:1 molar ratio for example), and then 2 μL of the mixture was added to the appropriate wells. The solutions were gently mixed by pipetting, and incubated overnight at 4° C.
Day 3: Next, the click reaction was performed, as previously described, but with the following modifications. To buffer the pH, triethylammonium acetate was added to a final concentration of 50 mM, followed by the addition of 1.5 μL of 1 mM azide-functionalized PEG. The solutions were mixed by pipetting. Next, ascorbic acid was added to a final concentration of 1 mM and the solutions were mixed by gently pipetting. Then, copper sulfate was added to a final concentration of 1.5 mM, followed by pipetting to mix the solutions. Water was added to the other wells to maintain consistent phage concentrations. The plate was incubated at room temperature for 30 min.
The wells of the ELISA plate were then incubated with the phage samples. The blocking buffer was removed and the wells were gently washed two times with PBS. Next, the phage solution was added to the respective wells and incubated for 45 min. The phage solution was removed, and the wells were washed three times with 300 μL/well of wash buffer PT (0.05% Tween-20 in PBS), once with PBS, and then incubated with horseradish peroxidase-conjugated anti-M13 antibody (100 μL/well, 1:5000 dilution in PBS) for 40 min. The wells were washed three times with PT and once with PBS. The plate was then developed by incubating with HRP substrate solution (100 μL/well; 1 mg/mL o-phenylenediamine dihydrochloride and 0.02% w/v H2O2) in citric acid buffer (50 mM citric acid, 50 mM Na2HPO4, pH 5.0). The HRP activity was measured spectrophotometrically at 450 nm using a microtiter plate reader (Bio-Tek). The absorbance at 630 nm was subtracted from the absorbance at 450 nm to eliminate background.

PSMA = target: T2, PSMA (Homo sapiens, UniProt Q04609); conditions: genetically encoded, phage-displayed ligands [4,10]; cited from earlier work
T2 construct: The effective detection of PSMA shed by LNCaP cells, in androgen sensitive and androgen independent cells; endogenous in cells; host or cells: culture supernatant of LNCaP and LNCaP CSS cells
T2 sequence (Q04609 whole entry): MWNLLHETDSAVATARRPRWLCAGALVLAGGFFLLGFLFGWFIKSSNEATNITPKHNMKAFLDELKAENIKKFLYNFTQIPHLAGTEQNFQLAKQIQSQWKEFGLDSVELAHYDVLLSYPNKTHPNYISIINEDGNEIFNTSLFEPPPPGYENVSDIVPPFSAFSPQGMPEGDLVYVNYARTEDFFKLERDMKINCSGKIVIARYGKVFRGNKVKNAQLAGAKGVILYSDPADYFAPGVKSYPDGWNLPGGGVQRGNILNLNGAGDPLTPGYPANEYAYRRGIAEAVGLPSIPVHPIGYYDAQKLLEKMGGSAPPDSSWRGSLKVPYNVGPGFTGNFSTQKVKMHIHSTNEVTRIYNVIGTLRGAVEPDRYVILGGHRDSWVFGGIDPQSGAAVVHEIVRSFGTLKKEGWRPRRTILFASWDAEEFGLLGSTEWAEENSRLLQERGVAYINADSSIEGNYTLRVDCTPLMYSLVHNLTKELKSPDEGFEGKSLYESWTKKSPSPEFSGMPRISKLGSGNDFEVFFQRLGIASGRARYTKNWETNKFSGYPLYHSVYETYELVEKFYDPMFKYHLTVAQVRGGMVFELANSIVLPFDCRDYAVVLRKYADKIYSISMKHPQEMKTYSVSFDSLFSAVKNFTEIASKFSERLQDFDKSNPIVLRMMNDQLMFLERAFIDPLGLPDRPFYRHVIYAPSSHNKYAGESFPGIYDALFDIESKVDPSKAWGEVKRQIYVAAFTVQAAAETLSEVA

T1 sequence (Q04609 whole entry): as above

K14-Cys: oligolysine (K14) peptide with cysteine, wraps the phage, SEQ ID NO:2 (KKKKKKKKKKKKKKC; not fully specified (C-terminus))
average cross-sectional diameter ([1]; DLS backscatter mode, scattering angle 173°, FIG. 3A): 50.0 nm

K14-alkyne: alkyne-functionalized oligolysine (K14) peptide that wraps the phage, SEQ ID NO:1 (Pent4ynoyl-KKKKKKKKKKKKKK-NH2; SMILES C#CCCC(=O)N[C@@H](CCCCN)C(=O)N[C@@H](CCCCN)C(=O)N[C@@H](CCCCN)C(=O)N[C@@H](CCCCN)C(=O)N[C@@H](CCCCN)C(=O)N[C@@H](CCCCN)C(=O)N[C@@H](CCCCN)C(=O)N[C@@H](CCCCN)C(=O)N[C@@H](CCCCN)C(=O)N[C@@H](CCCCN)C(=O)N[C@@H](CCCCN)C(=O)N[C@@H](CCCCN)C(=O)N[C@@H](CCCCN)C(=O)N[C@@H](CCCCN)C(N)=O)
PSMA recognition / binding affinity with PEG spacers (PSMA on LNCaP cells; dual ligand combination P100SP-P4-2+P100SP-P4-1 with or without spacers, LNCaP cells, FIG. 6): no effect on binding affinity

P100NSP-2+P100NSP-1: phage wrapped with 2:1 dual ligand combination of P100NSP-2 and P100NSP-1 (peptide 1 SECVEVFQNSCDW; peptide 2 CALCEFLG)
binding affinity of dual ligand combinations (PSMA on LNCaP cells; LNCaP cells): only a modest improvement
recognition of PSMA on LNCaP cells (PSMA on LNCaP cells; different ratios of the two PEGylated, phage-wrapped ligands, FIG. 4): maximize the recognition of PSMA on LNCaP cells

P100NSP-2: PEG100, non-specific attachment to ligand 2; bioconjugated to phage wrapped with K14-Cys (SECVEVFQNSCDW-NH2; not fully specified (N-terminus); cysteine pairing not given here; also: PEG100 attached non-specifically)
binding affinity for LNCaP cells (PSMA on LNCaP cells; phage wrapped with K14-Cys and individual PEGylated ligand, FIG. 14): higher affinity for LNCaP cells compared to P100NSP-1

P100NSP-P4-2+P100NSP-P4-1: phage wrapped with dual ligand combination, non-specific attachment with PEG4 linker (peptide 1 SECVEVFQNSCDW-NH2; peptide 2 CALCEFLG-NH2; not fully specified (N-terminus); cysteine pairing not given here; also: PEG100 non-specific attachment with PEG4 linker)
binding affinity of dual ligand combinations (PSMA on LNCaP cells; LNCaP cells): drop in affinity; also recorded: affinity equivalent to P100NSP-P4-2

P100SP-2: PEG100, specific attachment to ligand 2; bioconjugated to phage wrapped with K14-Cys (SECVEVFQNSCDW-NH2; not fully specified; cysteine pairing not given here; also: specific N-terminal attachment to Mal-PEG100 via triazole)
binding affinity for cell surface PSMA (PSMA on LNCaP cells): higher binding affinity for cell surface PSMA than P100NSP-2

P100SP-P4-2+P100SP-P4-1: phage wrapped with dual ligand combination in a 2:1 ratio, specific attachment with PEG4 linker (peptide 1 SECVEVFQNSCDW-NH2; peptide 2 CALCEFLG-NH2; not fully specified (N-terminus); cysteine pairing not given here; also: mixture of two PEG100 conjugates (ligand 2 and ligand 1, 2:1) with PEG4 linker, specific N-terminal triazole attachment)
binding affinity of dual ligand combinations (PSMA on LNCaP cells; LNCaP cells): significant increase in binding affinity

P100SP-P4-2: PEG100, specific attachment, PEG4 linker, ligand 2; on phage wrapped with K14-Cys (SECVEVFQNSCDW-NH2; not fully specified (N-terminus); cysteine pairing not given here; also: PEG100, specific attachment, PEG4 linker)
increase in cross-sectional diameter ([1]; DLS backscatter mode, relative to previous wrapping step, FIGS. 3A-3B): 10 nm
binding affinity for cell surface PSMA (PSMA on LNCaP cells): most effective architecture

PEGylated oligolysine: K14-alkyne pre-conjugated to azide PEG7, 22 or 45 by click reaction, then applied to phage (Pent4ynoyl-KKKKKKKKKKKKKK-NH2; also: alkyne click-conjugated (triazole) to azide PEG7, 22 or 45)
change in the cross-sectional diameter of the treated phage ([1]; DLS, phage treated with pre-formed PEGylated oligolysine (data not shown)): no significant change

SECVEVFQNSCDW [ligand-2]
higher affinity to PSMA than ligand-1 (PSMA): > 100 fold
